Assay results as given in patent publication US20180222958A1 (ONCOMED PHARMACEUTICALS, published 2018).

Key:
[1] = biological target: T1, human LTβR ecd, CD4TM and GFP (human, UniProt P36941 31-227); experiment: flow cytometry on HEK 293T cells transiently transfected with human LTβR ecd-CD4TM-GFP (row 'hLTBR GFP'); '0.5 ug/ml' printed at the upper left of the figure; APC-conjugated Fc secondary
T1 construct: extracellular domain; also called hLTβR; hLThR-GFP; not shown: CD4 transmembrane domain and GFP fused after the extracellular domain
Description: (§1) To test the binding of the different c-terminal human lymphotoxin heterotrimer constructs to human and mouse LTβR, HEK 293T cells were transiently transfected with cDNA expression vectors encoding cDNA for human or mouse LTβR ecd, CD4TM and GFP. Cells were then incubated with the various human lymphotoxin constructs 363F2, 363F3, or 363F4, washed and stained with APC-conjugated Fc secondary antibody. Mouse (deglycosylated) IgG1 Fc-mouse lymphotoxin-αββ heterotrimer fusion protein 363F1 was also tested. Binding of the lymphotoxin constructs was then assessed by flow cytometry using a Canto II FACS instrument (BD Biosciences) and analyzed using FlowJo software.

[2] = biological target: T2, membrane-bound extracellular domain of mouse LTβR (mLTβR-CD4TM-GFP) (mouse, UniProt P50284 31-223); experiment: flow cytometry on HEK 293T cells transiently transfected with mouse LTβR ecd-CD4TM-GFP (row 'mLTBR GFP'); '0.5 ug/ml' printed at the upper left of the figure; APC-conjugated Fc secondary
T2 construct: extracellular domain; also called mouse LTβR ecd, CD4TM and GFP; mLThR-GFP; not shown: CD4 transmembrane domain and GFP fused after the extracellular domain
Description: as §1

T1 sequence (P36941 31-227): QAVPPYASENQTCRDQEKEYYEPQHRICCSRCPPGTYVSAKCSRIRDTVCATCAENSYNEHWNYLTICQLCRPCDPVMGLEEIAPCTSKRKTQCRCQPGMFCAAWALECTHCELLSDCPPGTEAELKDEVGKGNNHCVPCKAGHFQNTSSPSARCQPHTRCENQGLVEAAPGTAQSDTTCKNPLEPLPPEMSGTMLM
T2 sequence (P50284 31-223): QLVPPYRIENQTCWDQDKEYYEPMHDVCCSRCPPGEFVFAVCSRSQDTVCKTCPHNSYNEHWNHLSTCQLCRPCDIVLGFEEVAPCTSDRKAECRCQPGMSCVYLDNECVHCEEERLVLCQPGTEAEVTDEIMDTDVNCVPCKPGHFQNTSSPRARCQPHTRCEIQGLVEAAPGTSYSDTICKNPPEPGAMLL

B1: 363F1 mFc-mLTαββ (Fc fusion)
chain: GCKPCICTVPEVSSVFIFPPKPKDVLTITLTPKVTCVVVDISKDDPEVQFSWFVDDVEVHTAQTQPREEQFASTFRSVSELPIMHQDWLNGKEFKCRVNSAAFPAPIEKTISKTKGRPKAPQVYTIPPPKEQMAKDKVSLTCMITDFFPEDITVEWQWNGQPAENYKNTQPIMDTDGSYFVYSKLNVQKSNWEAGNTFTCSVLHEGLHNHHTEKSLSHSPGKKPAAHLVGYPSKQNSLLWRASTDRAFLRHGFSLSNNSLLIPTSGLYFVYSQVVFSGESCSPRAIPTPIYLAHEVQLFSSQYPFHVPLLSAQKSVYPGLQGPWVRSMYQGAVFLLSKGDQLSTHTDGISHLHFSPSSVFFGAFALLNPELPAAHLIGAWMSGQGLSWEASQEEAFLRSGAQFSPTHGLALPQDGVYYLYCHVGYRGRTPPAGRSRARSLTLRSALYRAGGAYGRGSPELLLEGAETVTPVVDPIGYGSLWYTSVGFGGLAQLRSGERVYVNISHPDMVDYRRGKTFFGAVMVGLNPELPAAHLIGAWMSGQGLSWEASQEEAFLRSGAQFSPTHGLALPQDGVYYLYCHVGYRGRTPPAGRSRARSLTLRSALYRAGGAYGRGSPELLLEGAETVTPVVDPIGYGSLWYTSVGFGGLAQLRSGERVYVNISHPDMVDYRRGKTFFGAVMVG
notes: also called mouse LTαββ; mouse (deglycosylated) IgG1 Fc-mouse lymphotoxin-αββ heterotrimer fusion protein
[1]
  MFI: 2260
[2]
  MFI: 4740
